# Source: patent US20190241648A1 (STATEN BIOTECHNOLOGY B V, published 2019)
# Ends that are not written are not given here.
# T1: ApoC3 peptide D66C (human, not fully specified; cyclic (thioether))
# T1 peptide: DKFSEFWCLDPEV
# T2: ApoC3 peptide L67C (human, cyclic (thioether))
# T2 peptide: DKFSEFWDCDPEV
# T3: ApoC3 peptide V71D (human, thioether (positions not given here); also: cyclic (thioether), ring places not given here)
# T3 peptide: DKFSEFWDLDPED
# T4: ApoC3 peptide S62E (human, not fully specified; cyclic (thioether))
# T4 peptide: DKFEEFWDLDPEV
# T5: ApoC3 peptide D66E (human, not fully specified; cyclic (thioether))
# T5 peptide: DKFSEFWELDPEV
# T6: ApoC3 peptide D59F (human, thioether (positions not given here); not fully specified (C-terminus, bridges))
# T6 peptide: FKFSEFWDLDPEV
# T7: ApoC3 peptide F64G (human, thioether (positions not given here); not fully specified (bridges); also: cyclic (thioether), positions not given here)
# T7 peptide: DKFSEGWDLDPEV
# T8: ApoC3 peptide K60H (human, cyclic (thioether))
# T8 peptide: DHFSEFWDLDPEV
# T9: ApoC3 peptide S62H (human, thioether (positions not given here); also: cyclic (thioether), ring places not given here)
# T9 peptide: DKFHEFWDLDPEV
# T10: ApoC3 peptide E63H (human, cyclic (thioether))
# T10 peptide: DKFSHFWDLDPEV
# T11: ApoC3 peptide D66I (human, not fully specified; cyclic (thioether))
# T11 peptide: DKFSEFWILDPEV
# T12: ApoC3 peptide D59M (human, thioether (positions not given here); not fully specified (C-terminus, bridges))
# T12 peptide: MKFSEFWDLDPEV
# T13: ApoC3 peptide K60N (human, cyclic (thioether))
# T13 peptide: DNFSEFWDLDPEV
# T14: ApoC3 peptide D59P (human, thioether (positions not given here); not fully specified (C-terminus, bridges); also: cyclised via thioether between a C-terminal Cys and a modified N-terminus, the Cys and the N-terminal …)
# T14 peptide: PKFSEFWDLDPEV
# T15: ApoC3 peptide S62Q (human, thioether (positions not given here); also: cyclic (thioether), ring places not given here)
# T15 peptide: DKFQEFWDLDPEV
# T16: ApoC3 peptide V71Q (human, not fully specified; cyclic (thioether))
# T16 peptide: DKFSEFWDLDPEQ
# T17: ApoC3 peptide K60R (human, cyclic (thioether))
# T17 peptide: DRFSEFWDLDPEV
# T18: ApoC3 peptide F61R (human, cyclic (thioether))
# T18 peptide: DKRSEFWDLDPEV
# T19: ApoC3 peptide F61S (human, cyclic (thioether))
# T19 peptide: DKSSEFWDLDPEV
# T20: ApoC3 peptide E63S (human, cyclic (thioether))
# T20 peptide: DKFSSFWDLDPEV
# T21: ApoC3 peptide W65S (human, cyclic (thioether))
# T21 peptide: DKFSEFSDLDPEV
# T22: ApoC3 peptide D66T (human, not fully specified; cyclic (thioether))
# T22 peptide: DKFSEFWTLDPEV
# T23: ApoC3 peptide K60V (human, cyclic (thioether))
# T23 peptide: DVFSEFWDLDPEV
# T24: ApoC3 peptide S62V (human, thioether (positions not given here); also: cyclic (thioether), ring places not given here)
# T24 peptide: DKFVEFWDLDPEV
# T25: ApoC3 peptide L67V (human, thioether (positions not given here); not fully specified (bridges); also: thioether between a C-terminal Cys side chain and a modified N-terminus, the Cys is not in the chain)
# T25 peptide: DKFSEFWDVDPEV
# T26: ApoC3 peptide D68W (human, cyclic (thioether))
# T26 peptide: DKFSEFWDLWPEV
# T27: ApoC3 peptide F61Y (human, cyclic (thioether))
# T27 peptide: DKYSEFWDLDPEV
# T28: ApoC3 peptide E63Y (human, cyclic (thioether))
# T28 peptide: DKFSYFWDLDPEV
# T29: ApoC3 peptide L67Y (human, thioether (positions not given here); not fully specified (bridges); also: thioether between a C-terminal Cys side chain and a modified N-terminus, the Cys is not in the chain)
# T29 peptide: DKFSEFWDYDPEV
# T30: ApoC3 peptide K60A (human, thioether (positions not given here); not fully specified (bridges); also: cyclic (thioether), positions not given here)
# T30 peptide: DAFSEFWDLDPEV
# T31: ApoC3 peptide E63A (human, not fully specified; cyclic (thioether))
# T31 peptide: DKFSAFWDLDPEV
# What was measured:
# Experiment in all cases: cyclic peptide substitution array
# ApoC3 peptide D66C = biological target: T1, ApoC3 peptide D66C
# In short: (§1)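 Peptide microarrays incubated with antibody samples, then stained with goat anti-human IgG (Fc) DyLight680 and anti-HA DyLight800 control antibodies, scanned at intensity 7/7 (red/green). Secondary-only pre-stain checked background binding; framing HA peptides served as quality control; substitution effects read as changes in spot intensity.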
# ApoC3 peptide L67C = biological target: T2, ApoC3 peptide L67C
# In short: as §1
# ApoC3 peptide V71D = biological target: T3, ApoC3 peptide V71D
# In short: as §1
# ApoC3 peptide S62E = biological target: T4, ApoC3 peptide S62E
# In short: as §1
# ApoC3 peptide D66E = biological target: T5, ApoC3 peptide D66E
# In short: as §1
# ApoC3 peptide D59F = biological target: T6, ApoC3 peptide D59F
# In short: as §1
# ApoC3 peptide F64G = biological target: T7, ApoC3 peptide F64G
# In short: as §1
# ApoC3 peptide K60H = biological target: T8, ApoC3 peptide K60H
# In short: as §1
# ApoC3 peptide S62H = biological target: T9, ApoC3 peptide S62H
# In short: as §1
# ApoC3 peptide E63H = biological target: T10, ApoC3 peptide E63H
# In short: as §1
# ApoC3 peptide D66I = biological target: T11, ApoC3 peptide D66I
# In short: as §1
# ApoC3 peptide D59M = biological target: T12, ApoC3 peptide D59M
# In short: as §1
# ApoC3 peptide K60N = biological target: T13, ApoC3 peptide K60N
# In short: as §1
# ApoC3 peptide D59P = biological target: T14, ApoC3 peptide D59P
# In short: as §1
# ApoC3 peptide S62Q = biological target: T15, ApoC3 peptide S62Q
# In short: as §1
# ApoC3 peptide V71Q = biological target: T16, ApoC3 peptide V71Q
# In short: as §1
# ApoC3 peptide K60R = biological target: T17, ApoC3 peptide K60R
# In short: as §1
# ApoC3 peptide F61R = biological target: T18, ApoC3 peptide F61R
# In short: as §1
# ApoC3 peptide F61S = biological target: T19, ApoC3 peptide F61S
# In short: as §1
# ApoC3 peptide E63S = biological target: T20, ApoC3 peptide E63S
# In short: as §1
# ApoC3 peptide W65S = biological target: T21, ApoC3 peptide W65S
# In short: as §1
# ApoC3 peptide D66T = biological target: T22, ApoC3 peptide D66T
# In short: as §1
# ApoC3 peptide K60V = biological target: T23, ApoC3 peptide K60V
# In short: as §1
# ApoC3 peptide S62V = biological target: T24, ApoC3 peptide S62V
# In short: as §1
# ApoC3 peptide L67V = biological target: T25, ApoC3 peptide L67V
# In short: as §1
# ApoC3 peptide D68W = biological target: T26, ApoC3 peptide D68W
# In short: as §1
# ApoC3 peptide F61Y = biological target: T27, ApoC3 peptide F61Y
# In short: as §1
# ApoC3 peptide E63Y = biological target: T28, ApoC3 peptide E63Y
# In short: as §1
# ApoC3 peptide L67Y = biological target: T29, ApoC3 peptide L67Y
# In short: as §1
# ApoC3 peptide K60A = biological target: T30, ApoC3 peptide K60A
# In short: as §1
# ApoC3 peptide E63A = biological target: T31, ApoC3 peptide E63A
# In short: as §1
binder,measurement,setting,value
"Llama antibody 5E5 (antibody, V domains shown, detected with goat anti-human IgG (Fc); also called mAb 5E5) VH: QLQLVESGGGLVQPGGSLRLSCAASGFTFGTYSMRWVRQVPRKALEWVSSISTDGGGTAYRDSVKGRFTISRDNAKNTLYLQMNNLKPEDTAIYYCVIAGYSDWGQGTQVTVSS VL: ATMLTQSPGSLSVVPGESASISCKTSQGLVHSDGKTYFYWFLQKPGQSPQQLIYQVSNRASGVPDRFTGSGSGTDFTLKISGVKAEDAGVYYCAQGTYYPHTFGSGTRLEIK",% of binding to wild-type peptide,ApoC3 peptide D66C,10.3%
same,% of binding to wild-type peptide,ApoC3 peptide L67C,0%
same,% of binding to wild-type peptide,ApoC3 peptide V71D,111%
same,% of binding to wild-type peptide,ApoC3 peptide S62E,0%
same,% of binding to wild-type peptide,ApoC3 peptide D66E,2.16%
same,% of binding to wild-type peptide,ApoC3 peptide D59F,31.6%
same,% of binding to wild-type peptide,ApoC3 peptide F64G,212%
same,% of binding to wild-type peptide,ApoC3 peptide K60H,116%
same,% of binding to wild-type peptide,ApoC3 peptide S62H,2.89%
same,% of binding to wild-type peptide,ApoC3 peptide E63H,49.9%
same,% of binding to wild-type peptide,ApoC3 peptide D66I,0%
same,% of binding to wild-type peptide,ApoC3 peptide D59M,57.7%
same,% of binding to wild-type peptide,ApoC3 peptide K60N,153%
same,% of binding to wild-type peptide,ApoC3 peptide D59P,69.3%
same,% of binding to wild-type peptide,ApoC3 peptide S62Q,1.13%
same,% of binding to wild-type peptide,ApoC3 peptide V71Q,86.8%
same,% of binding to wild-type peptide,ApoC3 peptide K60R,112%
same,% of binding to wild-type peptide,ApoC3 peptide F61R,2.77%
same,% of binding to wild-type peptide,ApoC3 peptide F61S,22.6%
same,% of binding to wild-type peptide,ApoC3 peptide E63S,47.9%
same,% of binding to wild-type peptide,ApoC3 peptide W65S,0%
same,% of binding to wild-type peptide,ApoC3 peptide D66T,0%
same,% of binding to wild-type peptide,ApoC3 peptide K60V,101%
same,% of binding to wild-type peptide,ApoC3 peptide S62V,30.5%
same,% of binding to wild-type peptide,ApoC3 peptide L67V,84.8%
same,% of binding to wild-type peptide,ApoC3 peptide D68W,0%
same,% of binding to wild-type peptide,ApoC3 peptide F61Y,126%
same,% of binding to wild-type peptide,ApoC3 peptide E63Y,90.9%
same,% of binding to wild-type peptide,ApoC3 peptide L67Y,0.02%
same,% of binding to wild-type peptide,ApoC3 peptide K60A,143%
same,% of binding to wild-type peptide,ApoC3 peptide E63A,90.1%
